This is an account of results in patent US7704951B2, “Method for ameliorating dyskinesia” (Juridical Foundation the Chemo-Sero-Therapeutic Research …, priority 2001, dated 2010).

Entries after “also recorded” stand apart in the source; their conditions may differ. Where no end group is shown, it is not given here. [ ]: non-standard residue; d: D form. Sec = N[C@@H](C[SeH])C(=O)O

In one data set the test system is Dami cells. The data set can be described thus: Cytotoxicity-inhibitory (cell death-inhibitory) activity assay using Dami cells. The format is cell-based. To be noted: for cytotoxicity-inhibitory activity: Dami cells, fatty acid-containing assay medium, 4 to 5 days, survival of the cells. As to the method: Using Dami cells (described in Greenberg S. M. et al., Blood, vol. 72, p. 1968-1977 (1988)) for use in assay system for cytotoxicity-inhibitory activity, the cells were washed twice with assay medium (50% PBS/SA/0.03% HSA (manufactured by SIGMA) or SA/0.05% BSA free from fatty acid (WAKO)/4 μM long-chain polyvalent fatty acid (e.g. arachidonic acid, linoleic acid or linolenic acid)) and suspended in the same medium at 3×10^4 cells/ml. The cell suspension was added to a 96-well plate in each 200 μl for wells for sample addition or in each 100 μl for wells for serial dilution. To the wells for sample addition was added each 2 μl assay sample containing either selenoprotein P fragment prepared in Preparation 1, selenocystine, selenomethionine, Ebselen, or sodium selenite at the same concentration. After stirring, a serial dilution was made with the wells containing 100 μl cell suspension. The plate was incubated at 37° C. in CO2 incubator for 4 to 5 days followed by assessment of survival of the cells.

The conditions of data set [1]: cited from earlier work.
A further data set has as its system hNT cells. Put plainly: Survival and protrusion formation in cultured human neurocytes. The class given is cell-based. The procedure:
NT2 (Ntera2/D1) (Pleasure, S. J. and Lee, V. M., 1993, J. Neurosci. Res. 35: 585-602) is a progenitor neurocyte derived from human teratocarcinoma and can be differentiated with retinoic acid into hNT neurocytes having the properties of the nerve in the central nervous system (Trojanowski, J. Q. et al., 1993 Exp. Neurol. 122: 283-294). Effect of selenoprotein P on protrusion formation in the hNT cells was investigated.
Both NT2 and hNT cells can be cultured in CO2 incubator at 37° C. The hNT cells were prepared as follows: NT2 cells, being capable of passage culture in 10% FCS/D-MEM/F-12 medium, were first plated at 2.5×10^5 cells/ml. After 24 hours, the culture medium was replaced with D-MEM/F-12 containing 10 μM all-trans retinoic acid to initiate induction. The culture was subsequently continued for six weeks while replacing with the same medium every three days to differentiate NT2 cells into hNT cells. All the differentiated cells were recovered and expanded by 3-folds by passage culture with 10% FCS/D-MEM/F-12 medium. After 48 hours, the cells were plated at 3 to 4×10^6 cells/ml. After 48-hour culture, the culture medium was replaced with 5% FCS/D-MEM/F-12 plus mitotic inhibitor (10 μM Fluorodeoxyuridine, Uridine, 1 μM cytosine arabinoside) and culture was continued for ten days while replacing with the same medium every three days. Subsequently, the culture was treated with trypsin for a short time period and then lightly tapped to release the hNT cells which were recovered. The recovered cells were suspended in a mixed medium of an equal amount of NT2 culture supernatant (10% FCS/D-MEM/F-12 medium) and a fresh 10% FCS/D-MEM/F-12 medium. The suspension was plated on Laminin coating plate to maintain the cells. The hNT cells thus obtained were used in the following experiment.
The hNT cells were recovered by trypsin treatment, washed with a basal medium of RPMI 1640/D-MEM/F-12 (1:2:2), suspended in the same basal medium and cultured in 96-well plate at 3000 cells/well. On Day 5 to Day 7, the cells died completely.

Data set [2] in a line: Toxicity of selenium compounds (cell culture). The note with it: in spite of 9 to 10 selenocysteines. An excerpt: Selenium per se, as involved in the present invention, is one of essential trace elements and it is known that deficiency thereof induces a serious deficiency disease accompanied by, for instance, cardiomyopathy. […] Acute toxic symptoms of selenium include, for example, pale face, neurological symptoms, dermatitis, and gastrointestinal disorders.

For the next data set, the system named is gerbil mice. The data set can be described thus: Cerebral ischemia/reperfusion injury model (blocking both carotid arteries), degree of paralysis. The class given is in vivo. The note with it: 1 mg/animal i.v., vs control. The procedure:
Effect of selenoprotein P on dyskinesia induced by cerebral ischemia/reperfusion injury was assessed with a degree of paralysis using gerbil mice of 12 weeks old. […] […] A degree of paralysis was assessed after 6 and 24 hours.

The next data set has as its system EAE mice (SJL/JOrIICrj). The data set can be described thus: Experimental allergic encephalomyelitis (EAE) in mice, degree of paralysis. To be noted: 0.5 mg/head daily i.p. Day 8 to Day 13. The class given is in vivo, mouse. The procedure:
For investigating the effect of selenoprotein P on dyskinesia induced by immunopathy based on a degree of paralysis, an experiment was performed wherein selenoprotein P was administered to EAE mice. Female SJL/JOrIICrj of 14 weeks old (Charles River Japan, Inc.) was used as a test animal. Myelin proteolipid protein (PLP) synthetic peptide 139-151 (amino acid sequence: His Ser Leu Gly Lys Trp Leu Gly His Pro Asp Lys Phe (SEQ ID NO: 6); […]) as an immunogen was intradermally administered to the mice together with Freund complete adjuvant H37Ra ([…]) and pertussis toxin (manufactured by List Biological Laboratory; 200 ng/mouse) at two portions at the neck of tail.
Thirteen mice each in two groups received daily 0.5 mg/head of selenoprotein P via intraperitoneal administration from the day (Day 8) previous to onset of the disease till Day 13. A control group received saline via intraperitoneal administration.

With “Lys Arg Cys Ile Asn Gln Leu Leu Cys Lys Leu Pro Thr Asp Ser Glu Leu Ala Pro Arg Ser Xaa Cys Cys His Cys Arg His Leu Ile Phe Glu Lys (KRCINQLLCKLPTDSELAPRS[Sec]CCHCRHLIFEK; cysteine pairing not given here; listed as Homo sapiens) [SEQ ID NO: 4, peptide purified from selenoprotein P fragments under reduced condition; Xaa = selenocysteine]”, the cytotoxicity-inhibitory activity entry in the data set on Dami cells is “exhibit cytotoxicity-inhibitory activity”.

For the molecule `N[C@@H](C[Se][Se]C[C@H](N)C(=O)O)C(=O)O` [selenocystine], the “toxicity when added alone to cell culture” value in data set [1] is recorded as “fairly strong toxicity”.

“KRCINQLLCKLPTDSELAPRS (cysteine pairing not given here) [SEQ ID NO: 5, selenoprotein P-derived peptide with no selenocysteine, reference compound]”: the cytotoxicity-inhibitory activity entry in the data set on Dami cells was “exhibit no cytotoxicity-inhibitory activity”.

B1: selenoprotein P (protein, UniProt P49908 20-381, looked up)
Selenoprotein P: ESQDQSSLCKQPPAWSIRDQDPMLNSNGSVTVVALLQASUYLCILQASKLEDLRVKLKKEGYSNISYIVVNHQGISSRLKYTHLKNKVSEHIPVYQQEENQTDVWTLLNGSKDDFLIYDRCGRLVYHLGLPFSFLTFPYVEEAIKIAYCEKKCGNCSLTTLKDEDFCKRVSLATVDKTVETPSPHYHHEHHHNHGHQHLGSSELSENQQPGAPNAPTHPAPPGLHHHHKHKGQHRQGHPENRDMPASEDLQDLQKKLCRKRCINQLLCKLPTDSELAPRSUCCHCRHLIFEKTGSAITUQCKENLPSLCSUQGLRAEENITESCQURLPPAAUQISQQLIPTEASASURUKNQAKKUEUPSN
Turning to B1, the “survival time of hNT cells” value in the data set on hNT cells (100 ng/ml, basal medium) was “more than two weeks”. Besides, the “cell death of hNT cells” value in the data set with hNT cells (100 ng/ml, basal medium RPMI 1640/D-MEM/F-12, without addition cells died completely on Day 5 to Day 7) is given as “completely inhibited”. Moreover, the “protrusion formation (cellular morphology)” value in the data set with hNT cells (hNT cells, observed on Day 4, FIG. 3) was “protrusion formation was observed; also recorded: protrusion was formed”. Also, the toxicity entry in data set [2] is listed as “no strong toxicity”. In addition, the “degree of paralysis (score, Table 1)” value with gerbil mice (30 minutes ischemia model, after 6 and 24 hours) is “apparently exhibited better conditions”; with gerbil mice (45 minutes ischemia model, after 6 hours), “no significant difference”; in the data set with gerbil mice (45 minutes ischemia model, after 24 hours), “much difference”. The “onset of the disease” value with EAE mice (SJL/JOrIICrj) was “onset of the disease was inhibited”. Besides, the “severity of the disease (paralysis score, Table 2)” value with EAE mice (SJL/JOrIICrj) is on record as “severity of the disease was lowered”. In the data set with Dami cells (full-length protein compared with fragment fraction from Preparation 1), the “cell death-inhibitory activity per proteins” value was “much lower than that of the fragment”.
